Assay results reported in patent US20210155689A1 (SHANGHAI PHARMAEXPLORER, published 2021).
Substitutions are numbered along the chain they refer to.

T1: human LAG-3 (full length, on the cell surface) (human, UniProt P18627 23-525)
T1 construct: Full-length human LAG-3 expressed on cells; also called HEK293-hLAG-3; HEK293 cells transfected with LAG-3 gene
T1 sequence: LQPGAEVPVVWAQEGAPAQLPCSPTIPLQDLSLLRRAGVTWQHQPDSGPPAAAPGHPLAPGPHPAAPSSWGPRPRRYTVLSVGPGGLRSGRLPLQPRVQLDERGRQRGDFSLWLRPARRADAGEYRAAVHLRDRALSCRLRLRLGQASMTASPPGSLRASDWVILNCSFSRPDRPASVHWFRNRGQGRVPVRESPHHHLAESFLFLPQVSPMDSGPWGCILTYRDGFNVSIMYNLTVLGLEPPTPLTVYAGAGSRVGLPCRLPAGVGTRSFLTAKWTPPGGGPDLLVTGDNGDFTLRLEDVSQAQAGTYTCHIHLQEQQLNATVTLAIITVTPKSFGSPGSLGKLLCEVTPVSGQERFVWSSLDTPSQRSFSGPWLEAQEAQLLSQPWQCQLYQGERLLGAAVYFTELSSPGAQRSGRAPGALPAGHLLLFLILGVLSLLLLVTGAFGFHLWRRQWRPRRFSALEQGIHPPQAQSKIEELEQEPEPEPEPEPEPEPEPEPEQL

T2: human LAG-3 protein with hFc tag (hLAG-3-hFc protein) (human, UniProt P18627 23-450)
T2 construct: also called immunogen 1; LAG-3 extracellular domain protein; not shown: human IgG Fc fragment (hFc) of the pCpC vector
T2 sequence: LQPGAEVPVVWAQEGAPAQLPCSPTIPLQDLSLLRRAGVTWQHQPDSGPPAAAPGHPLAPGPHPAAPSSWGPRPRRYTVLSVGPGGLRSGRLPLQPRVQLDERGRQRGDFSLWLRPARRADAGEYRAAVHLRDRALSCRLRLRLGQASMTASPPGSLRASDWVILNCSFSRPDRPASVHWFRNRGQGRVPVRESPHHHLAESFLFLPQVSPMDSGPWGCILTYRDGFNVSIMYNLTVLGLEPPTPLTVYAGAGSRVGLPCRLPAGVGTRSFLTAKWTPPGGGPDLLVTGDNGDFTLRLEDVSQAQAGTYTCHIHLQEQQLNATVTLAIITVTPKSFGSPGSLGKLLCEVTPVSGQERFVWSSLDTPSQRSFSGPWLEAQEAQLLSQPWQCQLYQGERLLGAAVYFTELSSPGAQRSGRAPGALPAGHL

T3: human LAG-3 on cells (HEK293-hLAG-3 stable cell line) (human, UniProt P18627 23-525)
T3 sequence: T1 sequence

B1: 405B8H3 (mouse antibody purified from hybridoma) (antibody, V domains shown)
VH: QVQLQQSGAELVRPGASVTLSCKASGYTFTDYEMHWVKQTPVHGLEWIGATDPETGNSAYNQKFKGKAIMTADKSSSTAYMELRSLTSEDSAVYYCISTGWNDWGQGTSLTVSS
VL: DIKMTQSPSSMYASLGERVTITCKASQDINSYLSWFQQKPGKSPKTLIYRADRLLDGVPSRFSGSGSGQDYSLTISSLEYGDMGIYYCLQYDEFPYTFGGGTKLEIK
notes: also called mAb103-405B8H3; 405B81-13
B2: 105F1E10 (mouse antibody purified from hybridoma) (antibody, V domains shown)
VH: EVQLQQSGPELVKPGASVKMSCRASGYTFTDFKMHWMKQSHGKSLEWIGYIAPNNGGTAYNQKFRGKATLTVNESSNTAYMELRSLTSEDSAVYYCVDWDDVDYWGQGTTLTVSS
VL: B1 VL with P40S, D52N, L55V, G81E, D92V, Y96L, G100A, I106L
notes: also called mAb009-105F1E10
B3: 409D4E10 (mouse antibody purified from hybridoma) (antibody, V domains shown)
VH: B1 VH with Y27N, G56D, S58T, M70L, A72T, S98T, T99S
VL: B1 VL with D52N, G81E, D92N
notes: also called mAb112-409D4E10
B4: 409B11E12 (mouse antibody purified from hybridoma) (antibody, V domains shown)
VH: B1 VH with P41T, G56S, N57Y, M70L, S98A
VL: B1 VL with I2L, D52N, G81E
notes: also called mAb104-409B11E12
B5: 556F6B8 (mouse antibody purified from hybridoma) (antibody, V domains shown)
VH: RVQLKQSGPGLVQPSQSLSITCTVSGFSLIKYGVHWVRQSPGEGLEWLGVIWRGGITDYNAAFMSRLSITKDNSKSQVFFKMNSLQADDTAIYYCAKWDGPLAMDYWGQGTSVTVSS
VL: DIVMTQSHKFLSTSVGDRVSITCKASQDVGTTVAWYQQKPGQSPKLLIYWASTRHTGVPDRFTGSGSGTDFTLTISNVQSEDLADYFCQQYSSYPYTFGGGTKLEIK
notes: also called mAb123-556F6B8
B6: 105F1E10 (LAG-3 mouse-human chimeric antibody) (antibody, V domains shown)
VH: B2 VH
VL: B1 VL with P40S, D52N, L55V, G81E, D92V, Y96L, G100A, I106L
B7: 405B8H3 (LAG-3 mouse-human chimeric antibody) (antibody, V domains shown)
VH: B1 VH
VL: B1 VL
notes: also called mouse-human chimeric antibody 405B8H3
B8: 409D4E10 (LAG-3 mouse-human chimeric antibody) (antibody, V domains shown)
VH: B1 VH with Y27N, G56D, S58T, M70L, A72T, S98T, T99S
VL: B1 VL with D52N, G81E, D92N
B9: 409B11E12 (LAG-3 mouse-human chimeric antibody) (antibody, V domains shown)
VH: B1 VH with P41T, G56S, N57Y, M70L, S98A
VL: B1 VL with I2L, D52N, G81E
B10: 556F6B8 (LAG-3 mouse-human chimeric antibody) (antibody, V domains shown)
VH: B5 VH
VL: B5 VL
notes: also called 556F8B8
B11: 105F1E10 mouse-human chimeric antibody (antibody, V domains shown)
VH: B2 VH
VL: B1 VL with P40S, D52N, L55V, G81E, D92V, Y96L, G100A, I106L
notes: also called mAb009-105F1E10
B12: 405B8H3 mouse-human chimeric antibody (antibody, V domains shown)
VH: B1 VH
VL: B1 VL
notes: also called mAb103-405B8H3
B13: 409B11E12 mouse-human chimeric antibody (antibody, V domains shown)
VH: B1 VH with P41T, G56S, N57Y, M70L, S98A
VL: B1 VL with I2L, D52N, G81E
notes: also called mAb104-409B11E12
B14: 409D4E10 mouse-human chimeric antibody (antibody, V domains shown)
VH: B1 VH with Y27N, G56D, S58T, M70L, A72T, S98T, T99S
VL: B1 VL with D52N, G81E, D92N
notes: also called mAb112-409D4E10
B15: 556F6B8 mouse-human chimeric antibody (antibody, V domains shown)
VH: B5 VH
VL: B5 VL
notes: also called mAb123-556F6B8; 556F8B8

target: T1, human LAG-3 (full length, on the cell …); assay: FACS, HEK293-hLAG-3; 200.000 nM
Description: (§1) The pIRES plasmid with the monkey-derived full-length gene was transfected into the HEK293 cell line to construct a HEK293 stable cell line containing monkey LAG-3 (herein referred to as HEK293-cLAG-3 stable cell line). The HEK293-hLAG-3 stable cell line and HEK293-cLAG-3 stable cell line were expanded in a T-75 cell culture flask to a 90% confluence. The medium was aspirated, and the cells were washed with HBSS (Hanks' Balanced Salt Solution) 1-2 times, then treated with a enzyme-free cell dissociation fluid (Versene solution: Life technology) and the cells were collected. The cells were washed with HBSS buffer for 1-2 times. After counted, the cells were diluted with HBSS to 1-2×10⁶ cells per ml, added with 1% goat serum blocking solution, incubated on ice for 20-30 minutes, and then washed with HBSS for 2 times by centrifugation. The collected cells were suspended in the FACS buffer (HBSS+1% BSA) to 2×10⁶ cells/ml, added as 100 microliters per well to a 96-well FACS reaction plate, added with 100 microliters per well of the antibody sample to be tested, incubated on ice for 1-2 hours. The plate was washed twice with the FACS buffer by centrifugation, added with 100 microliters of fluorescent (Alexa 488)-labeled secondary antibodies per well, and incubated on ice for 0.5-1.0 hours. The plate was washed 2-3 times with FACS buffer by centrifugation, added with 100 μl fixative solution (4% Paraformaldehyde) per well to suspend the cells. 5-10 minutes later, it was washed 1-2 times with FACS buffer by centrifugation. The cells were suspended with 100 microliters of FACS buffer, FACS (FACSCalibur, BD) was used for detection and the results were analyzed.

Binder	Mean fluorescence intensity [MFI]
B1	324
B2	330
B3	154
B4	144
B5	83.7

target: T2, human LAG-3 protein with hFc tag …; assay: ELISA, hLAG-3-hFc coated; 0.0000 nM
Method: The plate was sealed with plastic film and incubated overnight at 4° C. The plate was washed 2 times with the plate washing solution (PBS+0.01% Tween20) on the next day, and added with the blocking solution (PBS+0.01% Tween20+1% BSA) and blocked at room temperature for 1-2 hours. The blocking solution was poured out, and the plate was added with 50-100 μl of the antibody sample to be tested to each well, incubated at 37° C. for 1-2 hours, and washed 2-3 times with a plate washing solution (PBS+0.01% Tween20). HRP (horseradish peroxidase) labeled secondary antibody was added, and the plate was incubated at 37° C. for 1-2 hours, and washed 2-3 times with a plate washing solution (PBS+0.01% Tween20). 100 μl of TMB substrate was added to each well. After incubated at room temperature for 15-30 minutes, the plate was added with 100 μl of stop solution (1.0N HCl) to each well.

Binder	OD450 [OD450]
B6	0.11
B7	0.12
B8	0.14
B9	0.13
B10	0.12

target: T3, human LAG-3 on cells (HEK293-hLAG-3 …); assay: FACS, HEK293-hLAG-3, antibody 8.000 nM
Description: as §1

Binder	Mean fluorescence intensity
B11	99.4
B12	137
B13	136
B14	129
B15	93.5

target: T2, human LAG-3 protein with hFc tag …; assay: FACS, blocks LAG-3-hFc binding to MHC II on Raji; 0.274 nM
Method: (§2) The FACS reaction plate incubating the Raji cells was centrifuged to discard the supernatant. The above mixture was added as 100 μl per well to Raji cells and incubated on ice for 1-2 hours. The plate was washed twice with blocking solution (PBS, 2% fetal bovine serum) by centrifugation, added with 100 microliters of fluorescent (Alexa 488)-labeled secondary antibodies per well, and incubated on ice for 1.0 hours. The plate was washed 2-3 times by centrifugation with blocking solution (PBS, 2% fetal bovine serum), added with 100 microliters of PBS per well to suspend cells, and detected using FACS (FACS Calibur, BD) and the results were analyzed. Wherein, the IgG control was murine IgG, and the data in the table is the inhibition rate (%).

Binder	Inhibition rate (%)
B1	2.1
B2	-8.3
B3	-7.5
B4	-3.9
B5	6

target: T2, human LAG-3 protein with hFc tag …; assay: FACS, blocks LAG-3-hFc binding to MHC II on Raji; 22.222 nM
Method: as §2

Binder	Inhibition rate (%)
B1	93.6
B2	93.6
B3	95.8
B4	95.3
B5	95.6

target: T2, human LAG-3 protein with hFc tag …; assay: FACS, blocks LAG-3-hFc binding to MHC II on Raji; 200.000 nM
Method: as §2

Binder	Inhibition rate (%)
B1	93.9
B2	93.1
B3	95.9
B4	95
B5	96
